A short description of the data set: yeast display, Sf9 membrane polyspecificity reagent, FACS + sequencing; frameworks hold sequencing errors. Summed up: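 A nanobody's polyreactivity label depends on the gate it was sorted from. Yeast display cells were stained with 10% biotinylated, detergent-solubilized Sf9 membrane reagent for 1 hour at 4 °C, enriched on streptavidin microbeads and sorted by FACS. The low and high (top ~1%) gates were set on anti-HA fluorescence for expression and streptavidin fluorescence for reagent binding.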
Take “QVQLVESGGGLVQAGGSLRLSCAASGLIFADYTMGWYRQAPGKERELVAVITDGDSTYYADSVKGRFTISRDNAKNTVYLQMNSLKPEDTAVYYCAAELDGSNYTLDYWGLGTQVTVSS”: the “polyreactivity (PSR sort gate)” value was “low polyreactivity”.

For the sequence “QVQLVESGGGLVQAGGSLRLSCAASGLIFAGYSMGWYRLAPGKERELVAAITWRGGRTYADSVKGRFTISRDNAKNTVYLQMNSLKPEDTAVYYCAVRRWGTSFVEDDYWGQGTQVTVSS”, the “polyreactivity (PSR sort gate)” value was “low polyreactivity”.

Turning to “QVQLVESGGGLVQAGGSLRLSCAASGLIFAPYAMGLYRQAPGKERELVAAISFRGGSTYYADSVKGRFTISRDNAKNTVYFQMNSLKPEDTAVYYSAADWLYDYGEYYYWGQGTQVTVSS”, the “polyreactivity (PSR sort gate)” value is listed as “high polyreactivity”.

“QVQLVESGGGLVQAGGSLRLSCAASGLIFARNALGWYRQAPGKERELVAAISWRSGRTYYADSVKGRFTISRDNAKNTVYLQMNSLKPEDTAVYYCAATSRTSWYGYWGQGTQVTVSS”: the “polyreactivity (PSR sort gate)” value was “high polyreactivity”.

In the case of “QVQLVESGGGLVQAGGSLRLSCAASGLIFARNAMGWYRQSPGKERELVAAITRGGSTYYADSVKGRFTISRDNAKNTVYLQMNSLKPEDTAVYYCNADYAYNSYGYRFYYWGQGTQVTVSS”, the “polyreactivity (PSR sort gate)” value is listed as “high polyreactivity”.

“QVQLVESGGGLVQAGGSLRLSCAASGLIFAVYAMGWYRQAPGKERELVAGISASAASTYYADSVKGRFTISRDNAKNTVYLQMNSLKPEDTAVYYCVAVLPARGYYWGQGTQVTVSS”: the “polyreactivity (PSR sort gate)” value is “high polyreactivity”.

As for “QVQLVESGGGLVQAGGSLRLSCAASGLIFDDYAMGWYRQAPGKERELVAAISWSDGTTYYADSVKGRFTISRDNAKNTVYLQMNSLKPEDTAVYYCAAEEVSGWEYDYWGQGTQVTVSS”, the “polyreactivity (PSR sort gate)” value is given as “high polyreactivity”.

Turning to “QVQLVESGGGLVQAGGSLRLSCAASGLIFDGYAMGWYRQAPGKERELVAAISRSGSRTYYADSVKGRFTISRDNAKNTVYLQMNSLKPEDTAVYYCAADAYNYPELDYWGQGTQVTVSS”, the “polyreactivity (PSR sort gate)” value was “high polyreactivity”.

For the sequence “QVQLVESGGGLVQAGGSLRLSCAASGLIFDKYAMGWYRQAPGKERELVAAITRSSGTTYYADSVKGRFTISRDNAKNTVYLQMNSLKPEETAVYYCAARFIWGYWGVGSYYWGQATQVTVSS”, the “polyreactivity (PSR sort gate)” value is on record as “low polyreactivity”.

Turning to “QVQLVESGGGLVQAGGSLRLSCAASGLIFDRSAMGWYRPAPGKERELDAASRWTGASSTYYADSVKGRFTISRDNAKNTVYLQMNSLKPEDTAVYYCNADSPYSFATGPYVLDSDYWGQGTQVTVSS”, the “polyreactivity (PSR sort gate)” value is reported as “low polyreactivity”.

Take “QVQLVESGGGLVQAGGSLRLSCAASGLIFDVNTMGWYRQAPGKERELVAAITGSGGRTYYADSVKGRFTISRDNGKNTVYLQMNSLKPEDTAFYYCNADTSYVGFDYWGQGTQVTVSS”: the “polyreactivity (PSR sort gate)” value is given as “low polyreactivity”.

Regarding “QVQLVESGGGLVQAGGSLRLSCAASGLIFDVYAMGWYRQAPGKERELVAVISRGGSTNYADSVKGRFTISRDNANNTVYLQMNSLKPEDTAVYYCAAGLVVSYPQNNYSVSFYARGYWGQGTQVTVSS”, the “polyreactivity (PSR sort gate)” value is recorded as “high polyreactivity”.

Consider “QVQLVESGGGLVQAGGSLRLSCAASGLIFDYYGMGWYRQAPGKEREFVAAINRSGGTTYYADSVKGRFTISRDNAKNTVYLQMNSLKPEDTAVYYCNADRGPAKLVYDPVIMDYWGQGTQVTVSS”, for which the “polyreactivity (PSR sort gate)” value was “low polyreactivity”.

For “QVQLVESGGGLVQAGGSLRLSCAASGLIFEVNVMGWYRQAPGTERELVAAITTGGGSTYYADSVKGRFTISRDNAKNTVYLQMNSLKPEDTAVYYCATDYSSYLYDYYTGVGGYEYWGQGTQVTVSS”, the “polyreactivity (PSR sort gate)” value is “low polyreactivity”.

Take “QVQLVESGGGLVQAGGSLRLSCAASGLIFFSYAMGWYRQAPGKERELVAAISRRGGRTYYADSVKGRFTISRDNAKNTVYLQMNSLKPEDTAVYYCAADSGYVWYADDYWGQGTQVTVSS”: the “polyreactivity (PSR sort gate)” value is “low polyreactivity”.

For “QVQLVESGGGLVQAGGSLRLSCAASGLIFGGYAMGWYRQAPGKERELVAAISSSGGRTYYADSVKGRFTISRDNAKNTVYLQMNSLKPEDTAVYYCATRVHYRNDYWGQGTQVTVSS”, the “polyreactivity (PSR sort gate)” value is given as “high polyreactivity”.

On to “QVQLVESGGGLVQAGGSLRLSCAASGLIFGKNAMGWYRQAPGKERELVAAISSGDSTYADSVKGRFTISRDNAKNTVYLQMNSLKPEDTAVYYCNAEVLRESYDRHPTTDYYWGQGTQVTVSS”, for which the “polyreactivity (PSR sort gate)” value is listed as “low polyreactivity”.

“QVQLVESGGGLVQAGGSLRLSCAASGLIFGPNAMGWYRQAPGKERELVAAITKSGDSTYYADSVKGRFTISRDNAKNTVYFQMNSLKPEDTAVYYCAADTTTGLYDYWGQGTQVTVSS”: the “polyreactivity (PSR sort gate)” value is “low polyreactivity”.

Take “QVQLVESGGGLVQAGGSLRLSCAASGLIFGPYAMGWYRQAPGKERELLAASWRGGSTYYADSVKGRFTISRDNAKNTVFLQMNSLKPEDTAVYYCAADVIYSLYYYWGQGTQVTVSS”: the “polyreactivity (PSR sort gate)” value is given as “low polyreactivity”.

In the case of “QVQLVESGGGLVQAGGSLRLSCAASGLIFGPYAMGWYRQAPGKERELVAAITSSGGSTYYADSVKGRFTISRDNAKNTVYLQMNSLKPEDTAVYSCAARGSPRYYARYNYWGQGTQVTVSS”, the “polyreactivity (PSR sort gate)” value was “low polyreactivity”.

“QVQLVESGGGLVQAGGSLRLSCAASGLIFGRNVMGWYRQAPGKERELVAAISWSGGRTYYADSVKGRFTISRDNAKNTVYLQMNSLKPEDTAVYYCAADDGPGFDYWGQGTQVTVSS”: the “polyreactivity (PSR sort gate)” value is “high polyreactivity”.

On to “QVQLVESGGGLVQAGGSLRLSCAASGLIFGSYAMGWYRQAPGKERELVAASSRSGGSTYYADSVKGRFTISRDKAKNSVYLQMISLKPEDTAVYYFAADDYSSEYDYWGQGTQVTVSS”, for which the “polyreactivity (PSR sort gate)” value is recorded as “high polyreactivity”.

Take “QVQLVESGGGLVQAGGSLRLSCAASGLIFGTKAMGCYRQAPGKERELVAAMSGSGGRTYYADSVKARFTISRDNAKNTVYLQMNSLKPEDTAVYYCASRFWRLHVGYGYSGQGTQVTVSS”: the “polyreactivity (PSR sort gate)” value was “high polyreactivity”.

With “QVQLVESGGGLVQAGGSLRLSCAASGLIFGTYAMGWYRQAPGKERELVATITRGGGSTYYADSVKGRFTISRDNAKNTVYLQMNSLKPEDTAVYDCAKTYFYGVRRFNYWGQGTQVTVSS”, the “polyreactivity (PSR sort gate)” value is listed as “high polyreactivity”.

With “QVQLVESGGGLVQAGGSLRLSCAASGLIFGWNAMGGYRQAPGKERELVAAINSGGITNYADSVKGRFTISRDNAKNTVYLQMYSLKPDDTEVYYCAADVVQYGLDWYGEEYESWGQGTQVTVSS”, the “polyreactivity (PSR sort gate)” value is “low polyreactivity”.

Take “QVQLVESGGGLVQAGGSLRLSCAASGLIFGWYAMGWYRQAPGKERELVAGISGSGGITYYADSVKGRFTISRDNAKNTVYLQMNSLKPEDTAVYYCNARYPRYYRGVIQYDFWGQGTQVTVSS”: the “polyreactivity (PSR sort gate)” value is “low polyreactivity”.

“QVQLVESGGGLVQAGGSLRLSCAASGLIFHQYAMGWYRQAPGKERELVAAITRSGTRTYYADSVKGRFTISRDNAKNTVYLQMNSLKPEDTAVYYCAAADTQGVSMDYWGQGTQVTVSS”: the “polyreactivity (PSR sort gate)” value is recorded as “high polyreactivity”.

Turning to “QVQLVESGGGLVQAGGSLRLSCAASGLIFIAYAMGWYRQATGKERELVAAISSSGGSTYYADSVKGRFTISRDNAKNTVYLQMTSLKREDTAVYYCAADRYAWGTGRYGYWGQGTQVTVSS”, the “polyreactivity (PSR sort gate)” value was “low polyreactivity”.

Consider “QVQLVESGGGLVQAGGSLRLSCAASGLIFIIYTRGWSRQAPGKERELVAAITRRGGITYYADSVKGRFTISRDNAKNTVYLQMNSLKPEDTAVYYCAVVRPYNIWYDYWGQGTQVTVSS”, for which the “polyreactivity (PSR sort gate)” value is listed as “low polyreactivity”.

Consider “QVQLVESGGGLVQAGGSLRLSCAASGLIFITYAMGWYRQAPGKERELVATITLRGGSTYYADSVKGRFTISRDNAKNTVYLQMNSLKPEDTAVYYCAADVGYWGRSSGYPSDDYDYWGQGTQVTVSS”, for which the “polyreactivity (PSR sort gate)” value was “low polyreactivity”.

In the case of “QVQLVESGGGLVQAGGSLRLSCAASGLIFIVYAMGWSRQAPGKERELVAAISWSGGSTYYADSVKGRFTISRDNAKNTVYLQMNSLKPEDTAVYYCAAPSSVRGKVISADYGYWGQGTQVTVSS”, the “polyreactivity (PSR sort gate)” value is given as “high polyreactivity”.

Turning to “QVQLVESGGGLVQAGGSLRLSCAASGLIFKGYVMGWYRQAPGKERELVAAISRRGGSTYYADSVKGRFTISRDNAKNTVYLQMNSLKPEDTAVYYCATEVYDIDGWWGYDYWGQGTQVTVSS”, the “polyreactivity (PSR sort gate)” value was “high polyreactivity”.

Take “QVQLVESGGGLVQAGGSLRLSCAASGLIFKKYTMGWYRQAPGKERELVASISKSGGSTYYADSVKARFTISRDNAKNTVYLQMNSLKPEDTAVYYCAVGSTDRVSAQGSYFTYDYWGQVTQVTVSS”: the “polyreactivity (PSR sort gate)” value is recorded as “low polyreactivity”.

For the sequence “QVQLVESGGGLVQAGGSLRLSCAASGLIFKRYAMGWYRQAPGKERELVAAISYSGGSTYYADSVKGRFTISRDNAKNTVYLQMNSLKPEDTAVYYCATVYYHRFDYWGQGTQVTVSS”, the “polyreactivity (PSR sort gate)” value is listed as “high polyreactivity”.

Consider “QVQLVESGGGLVQAGGSLRLSCAASGLIFLAYTMGWYRLAPGKVRELVAAISYSDGSTYYADSVKARFTISRDNANNTVYVQMNSLKPEDTAVYYCAARPRPPLRSYDYWGQGTQVTVSA”, for which the “polyreactivity (PSR sort gate)” value was “low polyreactivity”.

“QVQLVESGGGLVQAGGSLRLSCAASGLIFLQYVMGWSRQAPGKEREFVATITDDGDTTYYADSVKGRFTISRDNAKNTVYLQMNSLKPEDTAVYYCAADAEGSASKYDYWGQGTQVTVSS”: the “polyreactivity (PSR sort gate)” value is recorded as “low polyreactivity”.

Turning to “QVQLVESGGGLVQAGGSLRLSCAASGLIFLVNAMGWYRQAPGKERELVAAIDRDGGITYADSVKGRFTISRDNAKNTVYLQMNSQKPEDTAVYYCAADPSSYGRFTYDYWGQGTQVTVSS”, the “polyreactivity (PSR sort gate)” value was “low polyreactivity”.

On to “QVQLVESGGGLVQAGGSLRLSCAASGLIFLYYAMGSYRQAPGKERELVAAIRTNYADSVKGRFTISRDNAKNTVSLQMNSLKPEDTAVYYCIAVSGDSGDYWGQGTQVTVSS”, for which the “polyreactivity (PSR sort gate)” value is listed as “low polyreactivity”.

On to “QVQLVESGGGLVQAGGSLRLSCAASGLIFLYYTMGWYRQAPGKERELVAAISSAGRTNYADSVKGRFTISRDNAKNTVYLQMNSLKPEDTAVYYCNADGGWWARYGYWGQGTQVTVSS”, for which the “polyreactivity (PSR sort gate)” value is reported as “low polyreactivity”.

As to “QVQLVESGGGLVQAGGSLRLSCAASGLIFNWNDMGWYRQAPGKERELVAAISGDGGITYYADSVKGRFTISRDNAKNTVFLQMNSLKPEDTAVYYCNAGFTWGDWYDYWGQGTQVTVSS”, the “polyreactivity (PSR sort gate)” value is on record as “low polyreactivity”.

Turning to “QVQLVESGGGLVQAGGSLRLSCAASGLIFPANAMGWYRPAPGKERELVAAISWRGSSTYYADSVKGRFTISRDNAKNTVYLQMNSLKPEDTAVYYCNVYVRSGSLRDIGYKYDYWGQGTQVTVSS”, the “polyreactivity (PSR sort gate)” value was “high polyreactivity”.

The values are drawn from the nanobody polyreactivity screen of Harvey et al. (2022).
